Reference: patent publication US9127040B2, “Regulation of sodium channels by PLUNC proteins” (The University of North Carolina at Chapel Hill, priority 2011, dated 2015)

Target: T1, α, β and γENaC subunits (Rattus norvegicus, UniProt P37089+P37090+P37091)
T1 construct: expressed in transfected cells; host or cells: Xenopus oocytes (cRNA injection; with or without V5-SPLUNC1 and CAP2)
T1 sequence (P37089 1-698): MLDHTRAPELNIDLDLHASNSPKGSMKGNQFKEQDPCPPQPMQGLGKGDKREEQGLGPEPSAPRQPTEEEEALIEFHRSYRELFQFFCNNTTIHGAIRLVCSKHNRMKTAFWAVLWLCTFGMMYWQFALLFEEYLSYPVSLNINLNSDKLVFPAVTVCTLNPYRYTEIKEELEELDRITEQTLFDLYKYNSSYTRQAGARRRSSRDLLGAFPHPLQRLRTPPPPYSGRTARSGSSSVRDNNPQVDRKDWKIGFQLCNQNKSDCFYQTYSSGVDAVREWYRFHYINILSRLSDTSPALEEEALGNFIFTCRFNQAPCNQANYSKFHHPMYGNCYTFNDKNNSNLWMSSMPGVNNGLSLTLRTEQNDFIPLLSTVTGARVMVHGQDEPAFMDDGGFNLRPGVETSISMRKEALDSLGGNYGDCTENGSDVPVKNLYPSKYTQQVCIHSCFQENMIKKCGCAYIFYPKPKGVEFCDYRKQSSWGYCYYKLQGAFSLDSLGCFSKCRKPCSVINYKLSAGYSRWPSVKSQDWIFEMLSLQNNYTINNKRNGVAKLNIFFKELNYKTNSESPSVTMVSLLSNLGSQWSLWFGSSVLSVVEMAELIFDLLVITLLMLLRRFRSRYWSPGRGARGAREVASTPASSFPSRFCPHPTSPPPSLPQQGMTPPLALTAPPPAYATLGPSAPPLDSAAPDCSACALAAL
T1 sequence (P37090 1-638): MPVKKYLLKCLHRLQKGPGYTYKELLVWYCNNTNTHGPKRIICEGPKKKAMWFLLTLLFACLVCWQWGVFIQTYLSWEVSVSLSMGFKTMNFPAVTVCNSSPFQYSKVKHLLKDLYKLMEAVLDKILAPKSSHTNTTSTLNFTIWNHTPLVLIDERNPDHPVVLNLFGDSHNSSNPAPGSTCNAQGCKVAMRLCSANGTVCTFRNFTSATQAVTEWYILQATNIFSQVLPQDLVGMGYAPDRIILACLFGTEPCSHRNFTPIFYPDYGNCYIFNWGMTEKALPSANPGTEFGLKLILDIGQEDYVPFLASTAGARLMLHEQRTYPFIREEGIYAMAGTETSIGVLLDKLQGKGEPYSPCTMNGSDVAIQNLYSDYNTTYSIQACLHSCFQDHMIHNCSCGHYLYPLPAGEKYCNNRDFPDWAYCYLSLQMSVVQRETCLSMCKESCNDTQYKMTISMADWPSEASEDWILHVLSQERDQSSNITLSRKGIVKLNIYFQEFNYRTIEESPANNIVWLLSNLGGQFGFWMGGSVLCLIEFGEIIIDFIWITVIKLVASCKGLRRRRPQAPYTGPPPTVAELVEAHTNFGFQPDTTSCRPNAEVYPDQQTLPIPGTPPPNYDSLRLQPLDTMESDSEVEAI
T1 sequence (P37091 1-650): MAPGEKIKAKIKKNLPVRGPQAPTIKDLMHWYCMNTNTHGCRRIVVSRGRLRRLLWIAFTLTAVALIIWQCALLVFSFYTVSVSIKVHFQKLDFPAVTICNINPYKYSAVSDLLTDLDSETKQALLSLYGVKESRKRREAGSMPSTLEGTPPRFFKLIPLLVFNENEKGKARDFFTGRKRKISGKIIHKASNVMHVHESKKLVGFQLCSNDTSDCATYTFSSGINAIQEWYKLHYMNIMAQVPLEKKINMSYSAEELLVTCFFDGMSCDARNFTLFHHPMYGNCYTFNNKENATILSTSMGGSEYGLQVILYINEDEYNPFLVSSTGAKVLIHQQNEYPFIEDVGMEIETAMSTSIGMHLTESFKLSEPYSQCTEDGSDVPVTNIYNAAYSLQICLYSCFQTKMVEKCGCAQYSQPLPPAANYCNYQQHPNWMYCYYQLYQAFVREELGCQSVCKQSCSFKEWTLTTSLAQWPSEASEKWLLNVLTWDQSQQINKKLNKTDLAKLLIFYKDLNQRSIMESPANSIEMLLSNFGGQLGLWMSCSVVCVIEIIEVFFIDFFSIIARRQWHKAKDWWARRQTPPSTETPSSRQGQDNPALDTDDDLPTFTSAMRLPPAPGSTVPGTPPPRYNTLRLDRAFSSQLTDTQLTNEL
Experiment: Co-immunoprecipitation of V5-tagged SPLUNC1 with HA-tagged ENaC subunits in Xenopus oocytes
Type: binding
Settings: V5-tagged SPLUNC1, anti-HA immunoprecipitation
Protocol: Xenopus oocytes were injected with either HA-N-Terminus or V5-C-Terminus (HA-NT/V5-CT) tagged subunits in combination with wild type (WT) untagged rat αβγENaC subunits (0.3 ng cRNA each) with or without V5-tagged SPLUNC1 and CAP2 (1 ng cRNA each). After 24 h, 40 eggs per experimental condition were lysed with buffer containing (in mM): 20 Tris, 50 NaCl, 50 NaF, 10 β-glycerophosphate, 5 Na4P2O7 pyrophosphate, 1 EDTA, pH 7.5 and protease inhibitors (complete, Roche), aprotinin (Sigma). Cell lysates were prepared by passing the eggs through a 27G1/2 needle twice and by centrifugation at 3,600 rpm for 10 minutes at 4° C. Supernatants were transferred to new tubes and samples were spun at 14,000 rpm for 20 minutes at 4° C. Supernatants were discarded and pellets were solubilized in (mM) 50 Tris, 100 NaCl, 0.1% Triton X-100, 0.1% NP-40, 20 NaF, 10 Na4P2O7, 10 EDTA+protease inhibitor cocktail (Sigma), pH 7.5. Total inputs were taken from whole cell samples representing 4% of total protein. Solubilized proteins were incubated with 50 μl of protein A and 5 μl of anti-HA antibody (Covance) overnight while tumbling at 4° C. Samples were washed three times with (mM) 150 NaCl 50 Tris pH 7.5 buffer. Laemmli buffer was added and samples were loaded on a 15% gradient Tris-glycine gel after incubation for 10 minutes at 96° C. […]

B1: SPLUNC1: human SPLUNC1 (SEQ ID NO:1), 256 amino acid secreted PLUNC family protein; rSPLUNC1 is the purified V5/6His-tagged recombinant form (protein, listed as Homo sapiens)
chain: MFQTGGLIVFYGLLAQTMAQFGGLPVPLDQTLPLNVNPALPLSPTGLAGSLTNALSNGLLSGGLLGILENLPLLDILKPGGGTSGGLLGGLLGKVTSVIPGLNNIIDIKVTDPQLLELGLVQSPDGHRLYVTIPLGIKLQVNTPLVGASLLRLAVKLDITAEILAVRDKQERIHLVLGDCTHSPGSLQISLLDGLGPLPIQGLLDSLTGILNKVLPELVQGNVCPLVNEVLRGLDITLVHDIVNMLIHGLQFVIKV
modifications: V5/6His tag in recombinant form
notes: rSPLUNC1 is the purified V5/6His-tagged recombinant form
In the case of B1, the “binding to ENaC subunits (co-immunoprecipitation)” value is reported as “bound to all three ENaC subunits”.
